Molecular target: Glu286 (UniProt position 286, FFGHPEVYIIV)
Assay: kinetics

Substance	pKa (Reduced wild-type CytcO reacting with O2, P3->F3 transition, cited from earlier work)	pKa (~22 °C, not stated (100 mM buffer), 100 mM buffer after 1:5 mixing: MES (pH 6, 6.5), HEPES (pH 7-8), BIS-TRIS propane (pH 7-9), CHES (pH 9, 9.5), CAPS (pH 10-11). Also 0.1 mM EDTA., Fully (four-electron) reduced CytcO reacting with 1 mM O2, P3 intermediate, detergent-solubilised, no membrane potential)
Cytochrome c oxidase (aa3-type), subunit I carries the titrating residue (Rhodobacter sphaeroides)	9.4	
Cytochrome c oxidase (aa3-type) Ser425Ala variant (subunit I) (Rhodobacter sphaeroides; S425A)		>10.5
